Measurements from the Immune Epitope Database (IEDB).

Experiments:
[1] = target: HLA-B*18:01; assay: IEDB peptide-MHC binding, purified MHC/direct/fluorescence; filed as Kd, often an IC50 or EC50 that approximates it; ≥ and ≤ were set here for values at or beyond the usual limits of such assays
[2] = target: HLA-B*08:01; assay: as above
[3] = target: HLA-A*24:02; assay: as above
[4] = target: HLA-B*44:02; assay: as above
[5] = target: HLA-A*26:01; assay: as above
[6] = target: HLA-B*15:09; assay: as above; details: source organism: Influenza A virus(A/swine/Henan/8/2004(H9N2))
[7] = target: HLA-A*31:01; assay: as above
[8] = target: HLA-B*40:01; assay: as above
[9] = target: HLA-B*07:02; assay: as above
[10] = target: HLA-B*46:01; assay: as above
[11] = target: HLA-B*58:01; assay: as above
[12] = target: HLA-A*69:01; assay: as above
[13] = target: HLA-A*11:01; assay: as above
[14] = target: HLA-A*02:01; assay: as above
[15] = target: HLA-B*27:05; assay: as above
[16] = target: HLA-A*03:01; assay: as above
[17] = target: HLA-B*15:01; assay: as above
[18] = target: HLA-A*01:01; assay: as above
[19] = target: HLA-B*27:05; assay: IEDB peptide-MHC binding, purified MHC/competitive/fluorescence; filed as Kd, often an IC50 or EC50 that approximates it; ≥ and ≤ were set here for values at or beyond the usual limits of such assays; details: source organism: Mammarenavirus juninense
[20] = target: HLA-B*15:01; assay: IEDB peptide-MHC binding, purified MHC/competitive/fluorescence; ≥ and ≤ were set here for values at or beyond the usual limits of such assays; details: source organism: Vaccinia virus
[21] = target: HLA-A*01:01; assay: as above
[22] = target: HLA-A*02:01; assay: as above
[23] = target: HLA-A*30:01; assay: IEDB peptide-MHC binding, purified MHC/direct/fluorescence; filed as Kd, often an IC50 or EC50 that approximates it; ≥ and ≤ were set here for values at or beyond the usual limits of such assays; details: source organism: Escherichia coli
[24] = target: HLA-B*35:01; assay: as above
[25] = target: HLA-A*02:01; assay: IEDB peptide-MHC binding, purified MHC/competitive/radioactivity; ≥ and ≤ were set here for values at or beyond the usual limits of such assays
[26] = target: HLA-A*24:03; assay: IEDB peptide-MHC binding, purified MHC/competitive/fluorescence; filed as Kd, often an IC50 or EC50 that approximates it; ≥ and ≤ were set here for values at or beyond the usual limits of such assays; details: source organism: Escherichia coli str. K-12 substr. MG1655
[27] = target: HLA-B*58:01; assay: as above; details: source organism: Shigella boydii CDC 3083-94
[28] = target: HLA-B*35:01; assay: as above; details: source organism: Shigella boydii CDC 3083-94
[29] = target: HLA-B*48:01; assay: as above
[30] = target: HLA-A*24:03; assay: IEDB peptide-MHC binding, purified MHC/direct/fluorescence; filed as Kd, often an IC50 or EC50 that approximates it; ≥ and ≤ were set here for values at or beyond the usual limits of such assays; details: source organism: Rickettsia prowazekii
[31] = target: HLA-B*40:01; assay: IEDB peptide-MHC binding, purified MHC/competitive/fluorescence; filed as Kd, often an IC50 or EC50 that approximates it; ≥ and ≤ were set here for values at or beyond the usual limits of such assays
[32] = target: HLA-B*39:01; assay: as above; details: source organism: Yersinia pestis Nepal516
[33] = target: HLA-A*02:01; assay: as above; details: source organism: Yersinia pestis Nepal516
[34] = target: HLA-C*05:01; assay: IEDB peptide-MHC binding, purified MHC/direct/fluorescence; filed as Kd, often an IC50 or EC50 that approximates it; ≥ and ≤ were set here for values at or beyond the usual limits of such assays; details: source organism: Mycobacterium tuberculosis variant bovis
[35] = target: HLA-C*15:02; assay: as above; details: source organism: Mycobacterium tuberculosis variant bovis
[36] = target: HLA-C*12:03; assay: as above; details: source organism: Mycobacterium tuberculosis variant bovis
[37] = target: HLA-B*08:02; assay: as above
[38] = source organism: Influenza A virus (A/duck/Korea/S10/03(H3N2))
[39] = source organism: Zaire ebolavirus
[40] = source organism: Shigella dysenteriae
[41] = source organism: Escherichia coli
[42] = source organism: Vibrio parahaemolyticus
[43] = source organism: Rickettsia prowazekii
[44] = source organism: Influenza A virus (A/South Carolina/1/1918(H1N1))
[45] = source organism: Giardia lamblia ATCC 50803

What does the source list for PAHKSQLVW?
Kd [1, 38]: ≥ 20 µM; Kd [2, 38]: ≥ 20 µM; Kd [3, 38]: ≥ 20 µM; Kd [4, 38]: ≥ 20 µM; Kd ([5]; source organism: Influenza A virus(A/swine/Henan/8/2004(H9N2))): ≥ 20 µM; Kd [6]: ≥ 20 µM; Kd [7, 38]: ≥ 20 µM; Kd [8, 38]: ≥ 20 µM; Kd [9, 38]: ≥ 20 µM; Kd [10, 38]: ≥ 20 µM; Kd [11, 38]: 2.21 µM; Kd [12, 38]: ≥ 20000 nM; Kd [13, 38]: ≥ 20 µM; Kd [14, 38]: ≥ 20 µM; Kd [15, 38]: ≥ 20 µM; Kd [16, 38]: ≥ 20 µM; Kd [17, 38]: ≥ 20 µM; Kd [18, 38]: ≥ 20 µM

For YRWVNLASF, which Kd [19] is on record?
Its Kd is 98.1 nM.

How did the IC50 [20] turn out when PSIATNLEY was run?
Its IC50 is 43.7 µM.

And the IC50 ([21]; source organism: Vaccinia virus)?
Its IC50 is 15.2 µM.

Which IC50 [22, 39] does the source give for NTSKSTDFL here?
Its IC50 is no less than 495 µM.

What about the IC50 [21, 39] of the same sequence?
Its IC50 is no less than 191 µM.

How did the Kd [2, 40] turn out when TTFPVNGGY was run?
The Kd was no less than 20 µM.

And the Kd [4, 40]?
Its Kd is no less than 20 µM.

And the Kd [23]?
Its Kd is 16 µM.

And the Kd [5, 41]?
The Kd was 0.0228 µM.

And the Kd [7, 40]?
The Kd was no less than 20 µM.

What about the Kd [8, 40] of the same sequence?
Its Kd is no less than 20 µM.

And the Kd [9, 40]?
The Kd was no less than 20 µM.

And the Kd [11, 41]?
The Kd was no less than 10 µM.

What about the Kd [12, 41] of the same sequence?
The Kd was 334 nM.

And the Kd [13, 41]?
Its Kd is 5.77 µM.

What about the Kd [14, 40] of the same sequence?
The Kd was no less than 20 µM.

What about the Kd [15, 40] of the same sequence?
The Kd was no less than 20 µM.

And the Kd [24, 41]?
The Kd was 97 nM.

And the Kd [16, 41]?
Its Kd is 1.46 µM.

And the Kd [17, 41]?
The Kd was 0.165 µM.

And the Kd [18, 41]?
The Kd was 0.345 µM.

What does the source list for YPKCDLVEL?
Kd [2, 42]: 0.54 µM; Kd [4, 42]: ≥ 20 µM; Kd [5, 42]: ≥ 20 µM; Kd [7, 42]: ≥ 20 µM; Kd [8, 42]: ≥ 20 µM; Kd [9, 42]: 0.224 µM; Kd [11, 42]: ≥ 20 µM; Kd [12, 42]: 177 nM; Kd [13, 42]: ≥ 20 µM; Kd [14, 42]: ≥ 20 µM; Kd [15, 42]: ≥ 20 µM; Kd [24, 42]: 8.16 nM; Kd [16, 42]: ≥ 20 µM; Kd [17, 42]: ≥ 20 µM; Kd [18, 42]: ≥ 20 µM

With PTLDKVLEL as the sequence, how does the IC50 ([25]; source organism: Homo sapiens) read?
Its IC50 is 10000 nM.

With IYPGVNHGF as the sequence, how does the Kd [26] read?
The Kd was 0.3 nM.

Which results are given for KAWSEGLAM?
Kd [27]: 458 nM; Kd [28]: 0.2 nM

RQWFIDVPL was tested. Which Kd ([29]; source organism: dengue virus type 2) did it give?
The Kd was 68.4 nM.

With NLKLYGAEF as the sequence, how does the Kd [2, 43] read?
Its Kd is 0.433 µM.

And the Kd [4, 43]?
Its Kd is no less than 20 µM.

What about the Kd [5, 43] of the same sequence?
The Kd was no less than 20 µM.

And the Kd [30]?
The Kd was 11.6 µM.

What about the Kd [7, 43] of the same sequence?
Its Kd is no less than 20 µM.

And the Kd [8, 43]?
Its Kd is no less than 20 µM.

What about the Kd [9, 43] of the same sequence?
Its Kd is no less than 20 µM.

What about the Kd [11, 43] of the same sequence?
Its Kd is no less than 20 µM.

What about the Kd [12, 43] of the same sequence?
The Kd was no less than 20000 nM.

And the Kd [13, 43]?
The Kd was no less than 20 µM.

And the Kd [14, 43]?
Its Kd is no less than 20 µM.

What about the Kd [15, 43] of the same sequence?
The Kd was no less than 20 µM.

What about the Kd [24, 43] of the same sequence?
The Kd was 281 nM.

And the Kd [16, 43]?
The Kd was no less than 20 µM.

And the Kd [17, 43]?
The Kd was 0.133 µM.

What about the Kd [18, 43] of the same sequence?
Its Kd is no less than 20 µM.

With RQGKPDWLL as the sequence, how does the Kd ([29]; source organism: Vibrio vulnificus CMCP6) read?
The Kd was 124 nM.

Which Kd ([31]; source organism: Yersinia pestis Nepal516) does the source give for TQFGVPFVL here?
Its Kd is 205 nM.

What about the Kd [32] of the same sequence?
The Kd was 0.3 nM.

And the Kd [33]?
Its Kd is 13.5 nM.

How did the Kd ([29]; source organism: Burkholderia mallei SAVP1) turn out when RALAYDPAL was run?
The Kd was 80.8 nM.

How did the Kd [34] turn out when VTNDGVIFF was run?
The Kd was 3 nM.

And the Kd ([5]; source organism: Mycobacterium tuberculosis variant bovis)?
The Kd was 1.09 µM.

What about the Kd [35] of the same sequence?
The Kd was no less than 20 µM.

And the Kd [36]?
Its Kd is 319 nM.

RTLDKVLEV was tested. Which IC50 ([25]; source organism: Homo sapiens) did it give?
Its IC50 is 40 nM.

For FLPADFFPSV, which IC50 ([25]; source organism: Hepatitis B virus) is on record?
Its IC50 is 1.2 nM.

What does the source list for RLFFKCIYR?
Kd [1, 44]: ≥ 20 µM; Kd [2, 44]: ≥ 20 µM; Kd [3, 44]: ≥ 20 µM; Kd ([37]; source organism: Influenza A virus H3N2): ≥ 20 µM; Kd [4, 44]: ≥ 20 µM; Kd [8, 44]: ≥ 20 µM; Kd [9, 44]: ≥ 20 µM; Kd [10, 44]: ≥ 20 µM; Kd [11, 44]: ≥ 20 µM; Kd [14, 44]: ≥ 20 µM; Kd [15, 44]: ≥ 20 µM; Kd ([16]; source organism: Influenza A virus (A/Puerto Rico/8/34/Mount Sinai(H1N1))): 0.146 µM; Kd [17, 44]: ≥ 20 µM; Kd [18, 44]: ≥ 20 µM

VSSKKCTAL was tested. Which Kd [1, 45] did it give?
The Kd was no less than 20 µM.

And the Kd [2, 45]?
Its Kd is 17.7 µM.

And the Kd [3, 45]?
Its Kd is no less than 20 µM.

What about the Kd [37, 45] of the same sequence?
Its Kd is no less than 20 µM.

What about the Kd [4, 45] of the same sequence?
The Kd was no less than 20 µM.

What about the Kd [5, 45] of the same sequence?
Its Kd is no less than 20 µM.

What about the Kd [7, 45] of the same sequence?
The Kd was no less than 20 µM.

And the Kd [8, 45]?
The Kd was no less than 20 µM.

And the Kd [9, 45]?
The Kd was no less than 20 µM.

And the Kd [10, 45]?
The Kd was no less than 20 µM.

And the Kd [11, 45]?
Its Kd is no less than 20 µM.

And the Kd [12, 45]?
The Kd was no less than 20000 nM.

What about the Kd [13, 45] of the same sequence?
Its Kd is no less than 20 µM.

And the Kd [14, 45]?
The Kd was no less than 20 µM.

And the Kd [15, 45]?
The Kd was no less than 20 µM.

What about the Kd [16, 45] of the same sequence?
Its Kd is no less than 20 µM.

And the Kd [17, 45]?
The Kd was no less than 20 µM.

What about the Kd [18, 45] of the same sequence?
The Kd was no less than 20 µM.

How did the Kd ([3]; source organism: Cryptosporidium parvum Iowa II) turn out when IWIKLSYLW was run?
The Kd was 0.01 µM.

Which IC50 ([22]; source organism: Variola virus) does the source give for ITDFHERPV here?
The IC50 was 5.75 µM.

And the IC50 ([21]; source organism: Variola virus)?
Its IC50 is 6.25 µM.

How did the Kd ([3]; source organism: Bacillus anthracis str. A0488) turn out when DYLTTYFTW was run?
The Kd was no more than 0.001 µM.

For VESKNFADF, which Kd ([31]; source organism: Bacillus cereus G9241) is on record?
The Kd was 418 nM.
